Results from patent US20240229000A1, “METHODS AND COMPOSITIONS THEREOF FOR SITE-[…] LABELING OF HUMAN IgG BY PROXIMITY-BASED SORTASE-MEDIATED LIGATION” (THE TRUSTEES OF THE UNIVERSITY OF PENNSYLVANIA, priority 2021, published 2024).

System: trastuzumab (HCLPETG+LC)
Test: Proximity-based sortase-mediated protein ligation (PBS-PL) heavy chain labeling with GGG-TAMRA
Assay type: biochemical
Details: 1 μg trastuzumab (HCLPETG+LC), 200 μM GGG-TAMRA, 37° C. overnight
Experimental: FIGS. 13A-13C show comparison of proximity-based sortase-mediated protein ligation with 1M SrtA versus traditional sortase labeling with the pentamutant SrtA. FIG. 13A: Heavy chain labeling of trastuzumab (HCLPETG+LC) was carried out by titrating 5M SrtA (5M SrtA/antibody molar ratios ranging from 1:1 to 100:1) and comparing the labeling efficiency to that of 5M SrtA-pG, 1M SrtA-pZ, 1M SrtA-pG, and 1M pG-SrtA. […] Labeling efficiencies of 5M SrtA (FIG. 13B) and 1M SrtA-pZ (FIG. 13C) on the heavy chain were further compared by scaling the GGG-TAMRA concentration from 1-200 μM. Reaction conditions included: 1 μg trastuzumab (HCLPETG+LC), 500 μM CaCl2, 200 μM GGG-TAMRA, and 0.63 μM SrtA variant (1:1 molar ratio of 1M SrtA-pZ to antibody) in 10 mM Tris-HCl buffer (37° C. overnight). For all titration experiments, all other reactions conditions were held constant. Labeling efficiencies were determined by measuring the fluorescent intensity of the heavy chain band. For each experiment, these values were normalized against the maximum fluorescent intensity to compare across reaction conditions. One-way ANOVA was used to determine statistical significance (*P<0.05, n.s.=not significant), followed by Tukey's multiple comparisons test. Bar graphs are represented as average f SD. N=3 per reaction condition.

Sequence of trastuzumab (HCLPETG+LC) (as listed by the source, other chains not shown): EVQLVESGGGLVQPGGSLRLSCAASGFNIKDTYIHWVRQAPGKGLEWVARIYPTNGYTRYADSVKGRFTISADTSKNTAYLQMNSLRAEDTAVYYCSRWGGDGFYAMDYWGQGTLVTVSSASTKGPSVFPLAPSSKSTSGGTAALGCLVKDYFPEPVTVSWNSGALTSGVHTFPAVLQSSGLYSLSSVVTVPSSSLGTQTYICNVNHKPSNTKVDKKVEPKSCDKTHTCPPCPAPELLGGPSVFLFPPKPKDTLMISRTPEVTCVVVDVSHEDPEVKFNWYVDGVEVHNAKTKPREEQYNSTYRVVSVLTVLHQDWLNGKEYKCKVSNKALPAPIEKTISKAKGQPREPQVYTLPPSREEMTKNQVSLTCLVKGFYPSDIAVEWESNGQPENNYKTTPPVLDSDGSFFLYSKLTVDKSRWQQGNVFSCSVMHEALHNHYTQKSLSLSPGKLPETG

B1: 5M SrtA-pG (protein)
chain: MQAKPQIPKDKSKVAGYIEIPDADIKEPVYPGPATREQLNRGVSFAEENESLDDQNISIAGHTFIDRPNYQFTNLKAAKKGSMVYFKVGNETRKYKMTSIRNVKPTAVEVLDEQKGKDKQLTLITCDDYNEETGVWETRKIFVATEVKGGSGGSMTFKLIINGKTLKGEITIEAVDAAEAEKIFKQYANDYGIDGEWTYDDATKTFTVTE
heavy chain labeling efficiency of trastuzumab (HCLPETG+LC): did not label antibodies as efficiently as 1 M SrtA-pG and 1M SrtA-pZ
